We go through one protein from patent US20160143985.

The target in data set [1] is T1, Ac-YVAD-AMC (model substrate, from Enzo, Inc.).
T1 chain: YVAD

Data set [2] has as its target alpha-synuclein, wild-type full-length human (140 amino acids).

B1: caspase-1 (ICE; interleukin-1-beta converting enzyme), purified, activated (protein)
chain: NPAMPTSSGSEGNVKLCSLEEAQRIWKQKSAEIYPIMDKSSRTRLALIICNEEFDSIPRRTGAEVDITGMTMLLQNLGYSVDVKKNLTASDMTTELEAFAHRPEHKTSDSTFLVFMSHGIREGICGKKHSEQVPDILQLNAIFNMLNTKNCPSLKDKPKVIIIQACRGDSPGVVWFKDSVGVSGNLSLPTTEEFEDDAIKKAHIEKDFIAFCSSTPDNVSWRHPTMGSVFIGRLIEHMQEYACSCDVEEIFRKVRFSFEQPDGRAQMPTTERVTLTRCFYLFPGH
Take B1: the “activity against a model substrate” value in data set [1] is recorded as 110 µM/min/mg. For the same protein, in data set [2], the “Western blot of ICE digested alpha-synuclein with increasing amounts of ICE (2 to 12 µg)” value was “Appearance of a smaller fragment of synuclein below 17 kD with intensity increasing with amount of ICE”; the “cleavage of alpha-synuclein in vitro (SDS-PAGE and western blot with anti-synuclein antibody)” value is “Purified, activated caspase-1 does indeed cleave alpha-synuclein”.
